According to US20090131308A1 (AGOS BIOTECH, published 2009):
Positions of bridges follow the written chain, without caps; N, C: chain ends. No end group written: not given here.

Target: T1, soluble EGFR (amino acids 1-621) (UniProt P00533 25-645)
T1 construct: range 1-621; Amine-coupled to a CM-5 chip on flowcell 3; also called soluble ErbB1; ErbB-1
Test: BIAcore 3000, receptor amine-coupled to CM-5 chip, peptide injected
Procedure: Biosensor analyses were performed using a BIAcore™ 3000. A CM-5 (research grade) sensor chip was immobilized with soluble EGFR (amino acids 1-501), soluble EGFR (amino acids 1-621) and soluble ErbB2 (amino acids 1-509) on flowcells 2, 3 and 4, respectively. Immobilizations were performed using amine coupling chemistry in 10 mM Sodium Acetate at pH 4.2. Varying concentrations (1.25 μM, 2.5 μM, 5 μM and 10 μM) of peptides were injected (30 μl) over the sensor surfaces in HBS running buffer (10 mM HEPES, 3.4 mM EDTA, 0.15M NaCl, 0.005% Tween 20, pH 7.4) at a flow rate of 5 μl/min. The surfaces were then regenerated by injecting 10 μl of 10 mM NaOH at a flow rate of 20 μl/min. The resulting sensor curves were subtracted against the blank channel (Flowcell 1) to yield the specific response.

B1: Human NRG2 (1-32) (peptide)
peptide: GHARKCNETAKSYCVNGGVCYYIEGINQLSCK-OH
modifications: disulfide 14-20, 6-31; N-terminus assumed
SMILES: CC[C@H](C)[C@@H]1NC(=O)CNC(=O)[C@H](CCC(=O)O)NC(=O)[C@H]([C@@H](C)CC)NC(=O)[C@H](Cc2ccc(O)cc2)NC(=O)[C@H](Cc2ccc(O)cc2)NC(=O)[C@@H]2CSSC[C@H](NC(=O)[C@H](Cc3ccc(O)cc3)NC(=O)[C@H](CO)NC(=O)[C@H](CCCCN)NC(=O)[C@H](C)NC(=O)[C@H]([C@@H](C)O)NC(=O)[C@H](CCC(=O)O)NC(=O)[C@H](CC(N)=O)NC(=O)[C@@H](NC(=O)[C@H](CCCCN)NC(=O)[C@H](CCCNC(=N)N)NC(=O)[C@H](C)NC(=O)[C@H](Cc3c[nH]cn3)NC(=O)CN)CSSC[C@@H](C(=O)N[C@@H](CCCCN)C(=O)O)NC(=O)[C@H](CO)NC(=O)[C@H](CC(C)C)NC(=O)[C@H](CCC(N)=O)NC(=O)[C@H](CC(N)=O)NC1=O)C(=O)N[C@@H](C(C)C)C(=O)N[C@@H](CC(N)=O)C(=O)NCC(=O)NCC(=O)N[C@@H](C(C)C)C(=O)N2
notes: V8 digestion and mass spectrometry indicate C1-C4 and C2-C3 disulfide bridges; also called hNRG2 (1-32); hNRG2(1-32)
  binding result: no binding (tested: up to 10 uM)
